The chains are these.
B1: Autoimmune regulator (Homo sapiens), O43918 (parent)
chain: MATDAALRRLLRLHRTEIAVAVDSAFPLLHALADHDVVPEDKFQETLHLKEKEGCPQAFHALLSWLLTQDSTAILDFWRVLFKDYNLERYGRLQPILDSFPKDVDLSQPRKGRKPPAVPKALVPPPRLPTKRKASEEARAAAPAALTPRGTASPGSQLKAKPPKKPESSAEQQRLPLGNGIQTMSASVQRAVAMSSGDVPGARGAVEGILIQQVFESGGSKKCIQVGGEFYTPSKFEDSGSGKNKARSSSGPKPLVRAKGAQGAAPGGGEARLGQQGSVPAPLALPSDPQLHQKNEDECAVCRDGGELICCDGCPRAFHLACLSPPLREIPSGTWRCSSCLQATVQEVQPRAEEPRPQEPPVETPLPPGLRSAGEEVRGPPGEPLAGMDTTLVYKHLPAPPSAAPLPGLDSSALHPLLCVGPEGQQNLAPGARCGVCGDGTDVLRCTHCAAAFHWRCHFPAGTSRPGTGLRCRSCSGDVTPAPVEGVLAPSPARLAPGPAKDDTASHEPALHRDDLESLLSEHTFDGILQWAIQSMARPAAPFPS

Variants of B1 are the subject of the first test. The conditions noted are these: with h31_human H3C1, P68431.
Turning to D312A, the “effect of a mutation on the interaction” value is reported as “disrupting interaction”.

The next test covers variants of B1. The conditions noted are these: with h31_human H3C1, P68431. The source holds these as a separate data set.
In the case of V301M, the “effect of a mutation on the interaction” value was “decreasing interaction”.

Variants of B1 are the subject of the next test. Conditions: with h31_human H3C1, P68431. This is another data set of the same source.
As for D297A, the “effect of a mutation on the interaction” value is given as “disrupting interaction”.

The variants in the next test derive from B1. The conditions noted are these: with h31_human H3C1, P68431. This is another data set of the same source.
For the variant D297A, the “effect of a mutation on the interaction” value is recorded as “decreasing interaction”.

Variants of B1 are the subject of a further test. The conditions noted are these: with h31_human H3C1, P68431. The source holds these as a separate data set.
C311Y: the “effect of a mutation on the interaction” value is given as “disrupting interaction”.

Values taken from IntAct's records for PubMed 18292755.
